Data: the supplement of paper PMC10567573

B1: MATN2 (parent)
chain: VNVPGSFVCQCYSGYALAEDGKRC
B2: SLC6A17 (parent)
chain: KAVEEELDAEDRPAWNSKLQYILA

Variants of: B1
Test: protein stability index of a GFP-peptide fusion (GPS, HEK-293T) (PSI 1-6); higher = more stable
Conditions: c terminus: a fixed tail appended
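Note: lentivirally expressed fusions sorted by FACS into six bins by GFP to DsRed ratio, PSI derived from sequencing read proportions per bin multiplied by bin number.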

Protein stability index, by site and new letter:
L17: Q 2.26 | D 2.51 | T 1.75 | A 2.85 | W 1.92 | N 1.91 | V 2.3 | S 1.57 | R 2.54 | Y 2.44 | H 2.27 | C 3.36 | K 1.81 | M 1.81 | I 1.67 | F 1.03 | E 2.58 | G 2.04 | P 2.46
A16: M 1.79 | R 1.52 | P 1.49 | G 2.58 | V 1.62 | D 2.17 | F 2.42 | Y 1.1 | T 1.93 | N 1.45 | C 3.35 | S 1.84 | L 1.73 | I 2.11 | Q 1.97 | K 1.91 | H 2.77 | W 1.05
K22: A 2.6 | Y 1.47 | C 3.96 | T 2.6 | G 2.43 | F 1.81 | P 2.08 | N 3.34 | L 1.17 | R 1.08 | W 1.9 | S 1.7 | E 2.03 | H 2.68 | I 1.5 | Q 1.49 | M 1.23
S13: I 1.62 | D 2.17 | Y 1.9 | L 2.52 | P 2.47 | Q 1.5 | W 3.15 | K 1.58 | T 2.34 | A 2.39 | R 1.85 | E 2.1 | N 2.45 | V 1.32 | C 3.25 | G 2.33
Q10: H 1.78 | D 2.47 | F 2.64 | A 1.56 | R 2.01 | T 2.52 | S 2.29 | C 1.7 | N 2.31 | Y 1.97 | M 2.88 | E 1.55 | K 1.7 | L 2.46 | G 1.65 | V 2.08 | W 2.32 | P 2.15
V8: S 3.19 | W 3.21 | G 1.92 | P 2.28 | I 2.21 | F 1.79 | K 2.74 | C 1.27 | N 2.51 | E 2.53 | Q 2.51 | L 2.35 | M 2.79 | Y 3.01 | D 3.89 | H 2.34 | A 2.16 | T 1.96
E19: I 2.77 | H 3.03 | Q 1.75 | A 1.93 | V 2.29 | P 1.54 | S 1.43 | T 1.75 | N 2.79 | W 1.86 | Y 1.7 | G 2.83 | K 2 | C 3.15 | M 2.33 | F 1.17 | D 1.76 | R 1.51
G14: E 2.91 | R 2.81 | C 2.16 | D 1.95 | I 3.06 | P 1.78 | H 2.37 | Q 1.83 | T 1.69 | Y 1.86 | K 2.7 | N 1.56 | L 3.03 | S 2.44 | F 2.6 | A 2.37 | W 1.93 | M 2.52
F7: S 2.62 | Q 2.14 | G 3.34 | R 3.21 | P 3.13 | T 2.88 | L 2.07 | E 2.94 | W 2.48 | N 1.06 | I 1.92 | H 3.02 | M 2.7 | Y 2.01 | K 2.98 | V 2.19
Y15: K 1.98 | I 2.23 | F 2.38 | E 2.5 | A 2.56 | T 2.33 | S 3.02 | Q 1.98 | H 1.91 | P 2.81 | M 2.19 | D 2.03 | R 2 | G 2.14 | C 2.77 | W 1.65 | N 2.19 | L 2.19
C9: M 2.28 | P 3.06 | Q 2.97 | K 3.08 | E 3.33 | Y 2.2 | L 2.05 | S 3.15 | R 2.69 | W 2.21 | T 2.52 | N 3.12 | I 1.5 | D 4.36 | V 2.32 | H 2.95 | A 1.81 | G 2.8 | F 2.54
G21: H 2.41 | R 2.08 | P 2.38 | A 2 | V 1.88 | I 1.99 | C 4.22 | N 1.93 | Y 2.18 | S 2.36 | Q 2.75 | F 1.58 | L 2.7 | D 2.43 | T 3.02 | W 1.3 | E 1.84 | K 2.03 | M 3.7
Y12: L 2.21 | V 2.13 | Q 1.76 | R 2 | N 1.98 | F 2.54 | P 3.02 | A 2.73 | D 4.36 | S 2.64 | I 1.36 | T 2.95 | E 3.47 | H 2.24 | W 2.62 | C 2.87 | K 1.96
A18: G 1.82 | F 2.48 | D 2.36 | S 1.93 | P 1.65 | M 1.34 | N 2.09 | L 2.32 | R 2.38 | Q 2.38 | C 3.33 | Y 2.84 | T 2 | I 1.64 | E 2.56 | H 2.55 | K 1.73
C24: S 2.14 | F 1.83 | T 2.13 | R 1.25 | K 2.5 | M 2.06 | Y 2.41 | H 2.9 | L 1.86 | G 2.18 | N 2.72 | D 2.32 | Q 2.12 | E 1.94 | A 1.73 | V 3.76 | I 2.22
C11: W 2.05 | K 2.87 | H 2.65 | G 2.75 | L 2.19 | I 1.72 | T 2.43 | V 1.7 | A 3.12 | M 1.86 | N 2.97 | E 3.27 | Q 2.94 | P 2.42 | F 2.48 | D 4.08 | R 3.32 | Y 2.1
R23: E 2.78 | Q 3.67 | C 2.74 | K 2.99 | F 1.69 | G 2.56 | N 2.23 | D 2.78 | Y 1.83 | M 2.32 | H 1.62 | T 2.06 | P 2.07 | L 2.62 | I 1.67 | W 1.64 | V 2.41 | S 2.35 | A 2.16
D20: S 2.02 | A 1.9 | G 1.48 | F 2.57 | M 1.72 | I 2.81 | L 1.11 | P 2.42 | Q 1.37 | C 3.42 | E 1.85 | H 2.1 | W 1.57 | Y 1.05 | R 1.58 | V 1.87 | N 1.34 | T 2.12 | K 1.65

Variants of: B2
Test: as above
Conditions: c terminus: a fixed tail appended

Protein stability index: each site, then its substitutions
A2: T 1.83
E4: T 3.27
E6: K 2.7 | T 2.24
S17: G 2.75
L23: D 4.9 | P 3.97 | Y 3.01
E10: V 1.9
D11: R 2.54
Q20: K 2.92
Y21: H 3.16
A24: G 3.52
